Data set [1] addresses HBV core protein (Cp) dimer (Hepatitis B virus) (UniProt P03146). In words: fluorescence anisotropy. To be noted: 20 mM HEPES pH 7.5, 250 mM NaCl, 5 mM DTT, DMSO +/- compound, <0.15 M GuHCl, room temperature; Cp titrated in 10 steps to 1.2 uM; scale: normalized anisotropy change vs no compound.
Data set [2] shares this target. In words: NCP reassembly, SEC-MALLS with RNase A challenge. To be noted: 20 mM HEPES pH 7.5, 250 mM NaCl, 5 mM DTT, DMSO +/- compound, <0.15 M GuHCl, room temperature; Cp titrated in 10 steps to 1.2 uM.

Chain of HBV core protein (Cp) dimer (Hepatitis B virus) (P03146 whole entry): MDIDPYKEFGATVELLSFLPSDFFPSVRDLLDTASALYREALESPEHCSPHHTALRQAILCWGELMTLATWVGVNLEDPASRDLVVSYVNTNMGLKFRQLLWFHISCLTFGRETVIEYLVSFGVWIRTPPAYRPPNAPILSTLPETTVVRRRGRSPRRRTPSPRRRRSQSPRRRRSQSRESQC

In turn, HBV gRNA transcript, dye-labelled registered a binding signal in data set [1] of 0.477.
Take HBV gRNA transcript: the binding signal (% NCP yield vs control) in data set [2] was found to be 90.

(Values after article PMC7612645.)
